Reference: patent US20190276499A1, “Protein VII Fragments and Methods of Use Thereof for the Treatment of Inflammatory Disorders” (priority 2016, published 2019)

Assays:
HMGB1 [1] = target: T1, HMGB1 (Homo sapiens, UniProt P09429); assay: Fluorescence recovery after photobleaching (FRAP) of HMGB1-mGFP; format: cell-based
T1 sequence (P09429 1-215): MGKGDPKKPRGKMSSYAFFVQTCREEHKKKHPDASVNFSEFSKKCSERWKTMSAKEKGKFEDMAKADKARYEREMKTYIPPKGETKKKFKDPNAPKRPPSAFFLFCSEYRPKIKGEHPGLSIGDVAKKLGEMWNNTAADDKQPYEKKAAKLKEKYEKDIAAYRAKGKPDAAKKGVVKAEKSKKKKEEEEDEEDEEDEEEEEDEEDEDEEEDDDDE
Procedure: Full-length HMGB1 was cloned from pcDNA3.1 Flag-hHMGB1 (Addgene 31609) into pEGFP-N1 containing a L221K mutation to prevent dimerization of GFP molecules (Zacharias et al. (2002) Science 296:913-916). A549 cells were induced to express protein VII for four days with doxycycline in glass-bottom dishes. Cells were then transfected with the construct that constitutively expresses HMGB1 with a monomeric GFP C-terminal tag. FRAP was carried out using standard methods on a Zeiss LSM confocal microscope. Diffusion coefficients were calculated using the “simFRAP” algorithm (imagej.nih.gov/ij/plugins/simfrap/index.html), a simulation based approach to FRAP analysis (Blumenthal et al. (2015) Sci. Rep., 5:11655).

LPS induced lung injury = assay: Murine model of LPS induced lung injury, BAL fluid analysis; format: in vivo, mouse; settings: 24 hours after LPS exposure, versus mice expressing GFP
Procedure: All mice were housed in SPF conditions. All studies in mice were carried out in accordance with the recommendations in the Guide for the Care and Use of Laboratory Animals of the National Institutes of Health. C57BL/6J male mice aged 8-10 weeks were used for experiments. Mice were sedated with ketamine and xylazine. Once sedated, mice underwent orotrachial intubation, as described (Das et al. (2013) J. Vis. Exp., (73):e50318), with a 20G angiocatheter from BD (Franklin Lakes, N.J.). Mice subsequently received 5e10 GC of recombinant adenovirus expressing VII-GFP or GFP purified as described above. Four days after infection, mice were exposed to aerosolized LPS, 3 mg/mL for 30 minutes as described (Jeyaseelan et al. (2004) Infect. Immun., 72:7247-7256). One day after LPS exposure, BAL, and lung tissue were harvested as detailed (Nick et al. (2000) J. Immunol., 164:2151-2159) and examined for HMGB1 content (ELISA, Chondrex 6010) and neutrophil count (hematoxylin and eosin stain kit EMD 65044/93). Immunostaining was carried out using standard methods. A minimum of four biological replicates were used for each condition studied. Mice were assigned a random number and color at the start of the experiment and were randomized. Technicians carrying out the experiments were blinded to the identity of the samples. Tissue samples were assigned a random study number such that the technician performing the analysis was blinded. Unblinding for the purpose of data analysis occurred only after all data had been collected.

[2] = target: T2, HMGB1 full-length and domains (Homo sapiens, UniProt P09429); assay: In vitro GST pull down of recombinant GST-HMGB1 constructs with protein VII; format: binding
T2 construct: recombinant GST constructs encoding full-length HMGB1 or distinct HMGB1 domains
T2 sequence (P09429 1-215): T1 sequence (P09429 1-215)

[3] = test system: HMGB1 full-length and domains; assay: as above; format: binding
HMGB1 [4] = target: T1, HMGB1; assay: Co-immunoprecipitation of HMGB1 with protein VII-HA in A549 cells; format: cell-based; parameters: endogenous in cells; host or cells: A549; settings: A549 cells induced 4 days
Procedure: A549 cells were induced to express protein VII with doxycycline for four days as described above. Approximately 4×10^7 cells were harvested and pelleted for each immunoprecipitation reaction. Cell pellets were resuspended in 500 μl of IC wash buffer with protease inhibitors (20 mM HEPES pH 7.9, 110 mM KOAc, 2 mM MgCl2, 150 mM NaCl, 0.1% Tween-20, 0.1% Triton X) and incubated on ice for 10 minutes with intermittent vortexing to disrupt cells. Samples were then incubated on ice for 1 hour with 5 μl of benzonase (Millipore) added to each sample to digest DNA to ˜150 bp, which was confirmed by DNA isolation and agarose gel analysis. Samples were then sonicated in a Diagenode Bioruptre for 30 seconds on and 30 seconds off for five rounds at 4° C. and centrifuged at 14,000 g for 15 minutes at 4° C. Supernatants were then incubated rotating for 1 hour at 4° C. with 30 μl of HA-conjugated magnetic beads (Thermo Scientific) and washed three times for five minutes in IC buffer. Isolated proteins were eluted with 100 μl of 2 mg/ml HA peptide (Thermo Scientific) for 20 minutes rotating at 37° C. and separated on and SDS-PAGE gel. For protein separation by SDS-PAGE the NuPAGE IDE System was used (NuPAGE Novex 4-12% bis-tris 1.0 mm gels, Invitrogen, USA). Uninduced cells were used as a negative control. […]

HMGB1 [5] = target: T1, HMGB1; assay: Immunofluorescence of HMGB1 localization in A549 cells; format: cell-based; parameters: endogenous in cells; host or cells: A549
Procedure: Cells were grown on glass coverslips in 24-well plates and either infected or induced with doxycycline (0.2 μg/mL). Cells were harvested for immunofluorescence at the indicated time points, washed in phosphate-buffered saline (PBS), fixed in 4% paraformaldehyde for 15 minutes and post-fixed with 100% ice-cold methanol for 5 minutes. Coverslips were then blocked and stained as described (Lilley et al. (2011) PLoS Pathog., 7:e1002084) and mounted using ProLong Gold Antifade Reagent (Life Technologies). Immunofluorescence was visualized using a Zeiss LSM Confocal microscope and ZEN 2011 software. Images were processed using ImageJ and assembled with Adobe CS6. All scale bars show in the Figures are 10 μm unless otherwise stated.

HMGB1 [6] = target: T1, HMGB1; assay: GFP immunoprecipitation from A549 cells transfected with protein VII-GFP constructs; format: cell-based; parameters: endogenous in cells; host or cells: A549; settings: A549 cells transfected 24 hours
Procedure: We further narrowed down this binding region through expression of protein VII peptides tagged with GFP. […] Cellular fractionation of A549 cells transfected for 24 hours with GFP and the different protein VII constructs is shown in FIG. 7C.

B1: protein VII: mature protein VII of human adenovirus type 5 (SEQ ID NO:1), expressed in cells, mostly with C-terminal HA tag (protein)
chain: AKKRSDQHPVRVRGHYRAPWGAHKRGRTGRTTVDDAIDAVVEEARNYTPTPPPVSTVDAAIQTVVRGARRYAKMKRRRRRVARRHRRRPGTAAQRAAAALLNRARRTGRRAAMRAARRLAAGIVTVPPRSRRRAAAAAAAAISAMTQGRRGNVYWVRDSVSGLRVPVRTRPPRN
modifications: C-terminal HA tag; Human adenovirus 5
HMGB1 mobility by FRAP (HMGB1 [1]; A549 cells expressing protein VII, HMGB1-mGFP): decreased HMGB1 diffusion
Fluorescence recovery after photo-bleaching of full-length HMGB1 and HMGB1 A box (HMGB1 [1]; upon expression of protein VII): dramatically delayed
HMGB1 in BAL fluid (LPS induced lung injury): significantly less HMGB1
Neutrophils in BAL fluid (LPS induced lung injury): fewer neutrophils
Pull-down by full-length HMGB1 construct in vitro [2]: able to also pull-down protein VII
Binding to HMGB1 acidic tail (C-terminus) in vitro [3]: binds
HMGB1 co-immunoprecipitation with protein VII (HMGB1 [4]): confirmed
Relocalization of HMGB1 (immunofluorescence) (HMGB1 [5]): relocalization of HMGB1
Pull-down of HMGB1 by GFP immunoprecipitation (HMGB1 [6]): able to pull-down HMGB1
